The record followed here is US20020182595, “Method of identifying cellular regulators of adeno-associated virus (AAV)” (published 2002).

Series [1] deals with T1, ZF5C (clone A25, C-terminal ZF5 fragment) (Homo sapiens, UniProt O43829 O43829:308-449).
T1 sequence: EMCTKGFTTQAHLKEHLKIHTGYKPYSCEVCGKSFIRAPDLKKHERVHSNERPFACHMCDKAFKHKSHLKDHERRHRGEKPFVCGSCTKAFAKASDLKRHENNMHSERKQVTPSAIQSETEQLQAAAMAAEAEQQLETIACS
Description: EMSA; blocked by wild-type RRS competitor. The conditions noted are these: tags: N-terminal 6xMyc; label: 32P. A general note: Mobility shift assays separate free from complexed probe on a gel.

The target of series [2] is T2, Rep78 (UniProt Q89268 Q89268:1-621).
T2 sequence: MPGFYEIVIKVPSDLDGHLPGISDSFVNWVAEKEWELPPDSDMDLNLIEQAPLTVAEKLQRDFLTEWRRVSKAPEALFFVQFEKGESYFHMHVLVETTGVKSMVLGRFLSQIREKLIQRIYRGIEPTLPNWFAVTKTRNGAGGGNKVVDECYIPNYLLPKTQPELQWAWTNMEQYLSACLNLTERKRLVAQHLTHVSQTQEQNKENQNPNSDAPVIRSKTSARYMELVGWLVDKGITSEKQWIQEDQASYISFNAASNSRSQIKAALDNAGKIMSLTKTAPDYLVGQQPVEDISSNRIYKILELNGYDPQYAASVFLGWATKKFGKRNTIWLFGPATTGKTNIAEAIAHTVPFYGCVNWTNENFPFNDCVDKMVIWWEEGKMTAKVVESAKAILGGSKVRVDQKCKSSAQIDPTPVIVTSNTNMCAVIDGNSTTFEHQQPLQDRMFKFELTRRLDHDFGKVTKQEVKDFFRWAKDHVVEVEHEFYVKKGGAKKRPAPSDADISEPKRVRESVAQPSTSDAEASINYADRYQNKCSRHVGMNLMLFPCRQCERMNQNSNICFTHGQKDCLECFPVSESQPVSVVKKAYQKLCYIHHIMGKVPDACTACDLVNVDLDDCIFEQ
Briefly: EMSA; blocked by wild-type RRS competitor. The conditions noted are these: label: 32P.

For series [3], the target named is T3, ZF5 (Homo sapiens, UniProt O43829 O43829:1-449).
T3 sequence: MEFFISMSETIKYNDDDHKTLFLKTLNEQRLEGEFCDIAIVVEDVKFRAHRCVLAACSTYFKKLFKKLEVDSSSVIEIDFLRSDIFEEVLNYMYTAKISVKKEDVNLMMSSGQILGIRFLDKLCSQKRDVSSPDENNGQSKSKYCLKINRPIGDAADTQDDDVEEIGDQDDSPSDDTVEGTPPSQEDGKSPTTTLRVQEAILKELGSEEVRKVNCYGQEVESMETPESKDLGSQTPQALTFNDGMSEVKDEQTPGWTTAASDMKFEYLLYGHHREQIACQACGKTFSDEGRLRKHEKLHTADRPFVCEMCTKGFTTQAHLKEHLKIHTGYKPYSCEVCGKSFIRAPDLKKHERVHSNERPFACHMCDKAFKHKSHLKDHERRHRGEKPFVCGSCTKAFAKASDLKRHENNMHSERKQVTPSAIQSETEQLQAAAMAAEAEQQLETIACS
Description: EMSA; competed by excess unlabeled wild-type RRS. The conditions noted are these: tags: untagged and N-terminal 6xMyc versions; label: 32P.

Series [4] has as its target T4, ZF5 zinc finger 4 mutant (Homo sapiens, UniProt O43829 O43829:1-449, C363S).
T4 sequence: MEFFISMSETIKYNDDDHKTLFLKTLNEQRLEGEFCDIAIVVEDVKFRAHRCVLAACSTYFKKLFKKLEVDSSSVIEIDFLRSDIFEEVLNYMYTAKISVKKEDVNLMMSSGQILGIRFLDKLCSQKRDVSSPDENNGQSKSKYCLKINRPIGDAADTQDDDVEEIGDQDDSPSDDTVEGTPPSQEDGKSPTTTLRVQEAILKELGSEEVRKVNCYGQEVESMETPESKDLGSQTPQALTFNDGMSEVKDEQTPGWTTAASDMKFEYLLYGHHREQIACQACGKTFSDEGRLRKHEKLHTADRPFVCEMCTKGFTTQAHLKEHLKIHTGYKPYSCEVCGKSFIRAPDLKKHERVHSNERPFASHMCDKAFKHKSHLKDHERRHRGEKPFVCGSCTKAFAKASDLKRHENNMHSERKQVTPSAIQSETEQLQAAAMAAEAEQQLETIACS
Briefly: EMSA; no shift detected. The conditions noted are these: tags: untagged and N-terminal 6xMyc versions; label: 32P.

B1: RRS probe (core of 32-bp oligonucleotide) (dsDNA)
DNA 1: CTGCGCGCTCGCTCGCTCAC
DNA 2: GTGAGCGAGCGAGCGCGCAG
As to B1, the binding result is reported as “binds” in series [1], “binds” in series [2], “binds” in series [3] and “no binding” in series [4].
